Paper PMC10089224 (2023)
Bridges are numbered along the chain shown (N, C = ends). Where no end group is shown, it is not given here. [ ]: non-standard residue; d: D form.

How the values were obtained:
CPI1 [1] = target: T1, CPI1 (synthetic construct, thioether N-17); assay: ATPase activity inhibition assay (NADH-coupled), no LTC4
T1 chain: {CH2CO}-[dY]FWGNLHWYYEQFDSTC

CPI1 [2] = target: T2, CPI1 (synthetic construct, thioether N-17); assay: ATPase activity inhibition assay (NADH-coupled), with 3.5 µM LTC4
T2 chain: {CH2CO}-[dY]FWGNLHWYYEQFDSTC

B1: MRP1 (bMRP1) (protein)
chain: MALRDFCSVDGSDLFWEWNVTWNTSNPDFTKCFQNTVLVWVPCSYLWVCFPFYFLYLSHHDRGYIQMTHLNKAKTALGFLLWIVCWADLFYSFWERSMGKLLAPVFLVSPTLLGITMLLATFLIQIERRRGVQSSGIMLTFWLIALLCALAILRSKIMTALKEDARVDVFRDVTFYIYFSLVLIQLVLSCFSDRSPLFSETINDPNPCPESSASFLSRITFWWITGMMVQGYRQPLESTDLWSLNKEDTSEQVVPVLVKNWKKECAKSRKQPVKIVYSSKDPAKPKGSSKVDVNEEAEALIVKCPQKERDPSLFKVLYKTFGPYFLMSFLFKAVHDLMMFAGPEILKLLINFVNDKKAPEWQGYFYTALLFISACLQTLVLHQYFHICFVSGMRIKTAVIGAVYRKALVITNAARKSSTVGEIVNLMSVDAQRFMDLATYINMIWSAPLQVILALYLLWLNLGPSVLAGVAVMVLMVPLNAVMAMKTKTYQVAHMKSKDNRIKLMNEILNGIKVLKLYAWELAFKDKVLAIRQEELKVLKKSAYLAAVGTFTWVCTPFLVALSTFAVYVTVDENNILDAQKAFVSLALFNILRFPLNILPMVISSIVQASVSLKRLRVFLSHEDLDPDSIQRRPIKDAGATNSITVKNATFTWARNDPPTLHGITFSVPEGSLVAVVGQVGCGKSSLLSALLAEMDKVEGHVTVKGSVAYVPQQAWIQNISLRENILFGRQLQERYYKAVVEACALLPDLEILPSGDRTEIGEKGVNLSGGQKQRVSLARAVYCDSDVYLLDDPLSAVDAHVGKHIFENVIGPKGLLKNKTRLLVTHAISYLPQMDVIIVMSGGKISEMGSYQELLARDGAFAEFLRTYASAEQEQGQPEDGLAGVGGPGKEVKQMENGMLVTDTAGKQMQRQLSSSSSYSRDVSQHHTSTAELRKPGPTEETWKLVEADKAQTGQVKLSVYWDYMKAIGLFISFLSIFLFLCNHVASLVSNYWLSLWTDDPIVNGTQEHTQVRLSVYGALGISQGITVFGYSMAVSIGGIFASRRLHLDLLHNVLRSPISFFERTPSGNLVNRFSKELDTVDSMIPQVIKMFMGSLFNVIGACIIILLATPMAAVIIPPLGLIYFFVQRFYVASSRQLKRLESVSRSPVYSHFNETLLGVSVIRAFEEQERFIRQSDLKVDENQKAYYPSIVANRWLAVRLECVGNCIVLFASLFAVISRHSLSAGLVGLSVSYSLQVTTYLNWLVRMSSEMETNIVAVERLKEYSETEKEAPWQIQDMAPPKDWPQVGRVEFRDYGLRYREDLDLVLKHINVTIDGGEKVGIVGRTGAGKSSLTLGLFRIKESAEGEIIIDDINIAKIGLHDLRFKITIIPQDPVLFSGSLRMNLDPFSQYSDEEVWTSLELAHLKGFVSALPDKLNHECAEGGENLSVGQRQLVCLARALLRKTKILVLDEATAAVDLETDDLIQSTIRTQFDDCTVLTIAHRLNTIMDYTRVIVLDKGEIQEWGSPSDLLQQRGLFYSMAKDSGLV
CPI1 [1]
  Ki: 70 nM
CPI1 [2]
  Ki: 95 nM
